Consider 1 substance from paper PMC9151557.

What is called Kd is the concentration at which binding is half-saturated.

The target in this experiment is recombinant protein fibronectin-collagen peptide (FCP) (human). Put plainly: SPR; OpenSPR (Nicoya); FCP fixed on an NTA sensor chip by capture coupling, integrin β3 injected sequentially; PBS running buffer, 25 °C; binding and dissociation 250 s each; regeneration with hydrochloric acid pH 2.0; one-to-one diffusion-corrected model, TraceDrawer (the discussion says integrin β3 was the captured one). (In general: In SPR one partner is held on a chip, and binding of the other changes the refractive index at the surface.)

Sequence of integrin β3 (P05106 27-718): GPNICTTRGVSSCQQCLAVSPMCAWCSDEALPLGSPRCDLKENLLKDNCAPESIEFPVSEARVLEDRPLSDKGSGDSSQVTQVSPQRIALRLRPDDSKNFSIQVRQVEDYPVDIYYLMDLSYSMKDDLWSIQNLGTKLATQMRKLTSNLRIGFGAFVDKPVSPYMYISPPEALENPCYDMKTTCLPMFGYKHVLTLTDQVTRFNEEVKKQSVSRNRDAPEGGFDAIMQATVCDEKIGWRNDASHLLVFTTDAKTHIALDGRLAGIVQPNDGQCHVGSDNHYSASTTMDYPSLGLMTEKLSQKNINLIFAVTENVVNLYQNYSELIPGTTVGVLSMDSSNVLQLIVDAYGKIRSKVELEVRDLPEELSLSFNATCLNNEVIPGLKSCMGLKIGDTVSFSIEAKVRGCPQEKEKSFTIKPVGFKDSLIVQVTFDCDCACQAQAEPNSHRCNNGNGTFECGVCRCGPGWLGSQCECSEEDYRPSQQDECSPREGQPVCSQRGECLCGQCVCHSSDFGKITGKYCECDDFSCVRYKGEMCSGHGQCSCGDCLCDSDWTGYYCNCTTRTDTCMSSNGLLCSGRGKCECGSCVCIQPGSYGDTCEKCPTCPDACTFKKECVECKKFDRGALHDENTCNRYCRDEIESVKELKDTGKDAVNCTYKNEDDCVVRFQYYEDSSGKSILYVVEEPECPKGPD

Take “integrin β3 (from UniProt P05106 27-718) (receptor)”: the Kd came out at 53.7 nM.
